Test results: patent US20260185118A1 (priority 2023, published 2026)
Positions count from the first letter of the chain named. Read-outs that look alike come from different tables or passages of the source.

Assays:
bacterial and fungal = settings: it has been shown; cited from earlier work
[1] = tested on: terpene synthase CsTPS21 gene cluster; type: in vivo, Valencia orange; settings: transgenic citrus leaves overexpressing, compared with blank vector control
[2] = tested on: Huanglongbing pathogen CLas; type: in vivo, Candidatus Liberibacter asiaticus; settings: for pathogen titer versus vector control: qPCR, newborn leaves; for disease phenotype: 3 months after grafting infected branches onto transgenic citrus
CsMYC2 [3] = type: binding, Citrus sinensis; settings: yeast AH109, SD-Leu-Trp-His with 5 mM 3-AT
CsMYC2 protein = type: cell-based, Citrus sinensis; settings: tobacco leaves, 35S:CsMYC2-myc co-injected, versus 35S:YFP
CsPUB21 = type: biochemical, Citrus sinensis; settings: in the presence of E1 (AtUBA1) and E2 (AtUBC8), anti-c-myc immunoblot
CsMYC2 [4] = type: cell-based, Citrus sinensis; settings: tobacco leaves, 2-3 days, cytoplasm and nucleus
CsMYC2 [5] = type: biochemical, Citrus sinensis; settings: with AtUBA1, AtUBC8 and ubiquitin, anti-MBP immunoblot
[6] = tested on: Huanglongbing pathogen CLas; parameters: species or system Candidatus Liberibacter asiaticus; settings: in vivo
[7] = tested on: Huanglongbing pathogen CLas; type: in vivo, Candidatus Liberibacter asiaticus; settings: 7 days after feeding of CLas-carrying psyllids, qPCR
[8] = type: biochemical, Citrus sinensis L.Osbeck; settings: 2 μg protein, 10 μg FPP, 30° C., 30 min

Molecule: C=C1CC/C=C(\C)CC[C@@H]2[C@@H]1CC2(C)C [β-caryophyllene]
- bacterial and fungal killing effect (bacterial and fungal): rapid bacterial and fungal killing effect

B1: CsPUB21-Myc (protein)
chain: MILSWKRLRGGRGRRAGKKQPGVESGGEMELTTPNHFRCPISLDLMKDPVTLSTGITYDRENIEKWIHEDGNITCPVTNRVLTSFEPIPNHTIRRMIQDWCVENRSYGIERIPTPRIPVSSVEVFEINCNITTACKSEDQAGCRDLVAKIKKWTKESDRNKRCIVDNGAVSVLAEAFETFSKTCLDENVSVLEEILSTLTLLFPLAGEGLTYLGSASSMRCMVWFLKSGDLSRRRNAVLVLREIVSSDHRKVNVLLDIEGAIEPLFKLIKEPICPTATKASLVVVYRTITSASATEKPIQKFVDMGLVSLLLEMLVDAQRSLCEKALSVLDGLCSSDYGRGDAYNNSLIFPVIVKKILRVSDLATEFAVSILWKLCKNEEREEKTAFAEALQVGAFQKLLLLLQVGCADKTKEHVSELLKLLNPHRARLECIDSMDFKDLKRPF
- polyubiquitination of MBP-CsMYC2 (immunoblot with anti-MBP tag antibody; E. coli system with AtUBA1, AtUBC8 and FLAG-UBQ) (MBP-CsMYC2-HA): CsPUB21 is able to effectively polyubiquitinate the CsMYC2 protein in vitro

B2: YFP-CsPUB21 (protein)
chain: B1 chain
- accumulated level of the CsMYC2 protein on co-expression in tobacco leaves (immunoblot, anti-c-myc) (CsMYC2-myc): the accumulated level of the CsMYC2 protein and coexpression of CsPUB21 were significantly reduced

B3: CsPUB21DN-Myc (protein)
chain: B1 chain with C39A
- polyubiquitination of MBP-CsMYC2 (immunoblot with anti-MBP tag antibody; E. coli system with AtUBA1, AtUBC8 and FLAG-UBQ) (MBP-CsMYC2-HA): CsPUB21DN cannot ubiquitinate CsMYC2

B4: YFP-CsPUB21DN (protein)
chain: B1 chain with C39A
- accumulated level of the CsMYC2 protein on co-expression in tobacco leaves (immunoblot, anti-c-myc) (CsMYC2-myc): this reduction was inhibited by coexpression of CsPUB21DN

B5: CsPUB21: citrus plant U-box E3 ubiquitin ligase protein, amino acid sequence SEQ ID No. 1; overexpressed in citrus (protein)
chain: B1 chain
- expression of four CsTPS21 genes (CsTPS21-2, CsTPS21-7, CsTPS21-9, CsTPS21-10) [1]: significantly reduces
- pathogen titer versus vector control ([2]; 2 and 3 months of pathogen infestation): significantly higher than that of the vector control
- disease phenotype [2]: show disease characteristics of Huanglongbing infection
- interaction with CsMYC2 (yeast two-hybrid) (CsMYC2 [3]): interaction between CsPUB21 and CsMYC2 was confirmed
- accumulated level of the CsMYC2 protein on coexpression (CsMYC2 protein): significantly reduced
- E3 ubiquitin ligase activity (auto-ubiquitination) (CsPUB21): has the E3 ubiquitin ligase activity
- interaction with CsMYC2 (BiFC) (CsMYC2 [4]): confirmed
- polyubiquitination of the CsMYC2 protein in vitro (CsMYC2 [5]): able to effectively polyubiquitinate

B6: CsPUB21DN (protein)
chain: B1 chain with C39A
modifications: left off: large carriers
- concentration of CLas in the susceptible leaves [6]: significantly reduced
- CLas detection versus vector control plants [7]: significantly lower than that of the vector control plants
- Ct values versus healthy plants [7]: no difference in the Ct values
- disease phenotype [2]: still show a healthy state
- pathogen titer versus vector control ([2]; 3 months of infestation): lower pathogen titer than the vector control plants

B7: CsTPS21-7: citrus terpene synthase protein, SEQ ID No. 7, purified as GST fusion protein (protein)
chain: MKDMSIPLLAAVSSSTEETVRPIADFHPTLWGNHFLKSAADVETIDAATQEQHAALKQEVRRMITTTANKLAQKLHMIDAVQRLGVAYHFEKEIEDELGKVSHDLDSDDLYVVSLRFRLFRQQGVKISCDVFDKFKDDEGKFKESLINDIRGMLSLYEAAYLAIRGEDILDEAIVFTTTHLKSVISISDHSHVNSNLAEQIRHSLQIPLRKAAARLEARYFLDIYSRDDLHDETLLKFAKLDFNILQAAHQKEASIMTRTKDISEVDTILGVKVKKHSGERANISIIFDFFRWDIGLIDTLPEYMKFIVKALLDIYREAEEELAKEGRSYGIPYAKQMMQELIILYFTEAKWLYKGYVPTFDEYKSVALRSIGLRTLAVASFVDLGDFIATKDNFECILKNAKSLKATETIGRLMDDIAGYKFEQKRGHNPSAVECYKNQHGVSEEEAVKELLLEVANSWKDINEELLNPTTVPLPMLQRLLYFARSGHFIYDDGHDRYTHSLMMKRQVALLLTEPLAI
modifications: GST fusion tag
- 7-epi-sesquiterpene share of the total compounds [8]: 4.79±0.11%
- (E)-β-farnesene share of the total compounds [8]: 5.54±0.32%
- sesquiterpene share of the total compounds [8]: 7.86±0.70%
- β-caryophyllene share of the total product [8]: 81.81±0.92%
